B1: V305M + F360M: CyPPO16 variant (protein)
chain: MLDSLIVGAGISGLSAAHTLQKQQTQFLVTESQGRVGGNITTNRQGDYLWEEGPNSFAPTEDLLRLAVEVGLKEDLVFADRRLPRFVYWNQQLHPVPMSPPAALKTQLLSEAGKWRAALGALGFVGGLVGREEETVRQFFTRHLGTEVTERLVAPFVSGVYAGDVDQLSAQAAFRRVFEFAQLGGGLAAGGILARRQAPPKAPPDPSLPETKTGQLGSFREGLEMLPRAIASQLGDRLKLQWRLTHLEITPQQTYLAHFNTPDGPQQIATRTLILTTPAPITADLLKPLTPALHGVLKEIYYPPMACVVLAYPRAASARPLEGFGHLIPRNQGIRTLGTIWSSCLFPGRTPEGEHLLTNMIGGATDPGIAQLDPEEIAQAVHQDLCKILIRPEFTPKILAVRLWKQAIPQYTLGHLQRLATLEQELSKFPGLHILANYTDGVALGDCVKRGVAVAQKIRSRE
modifications: Synthetic (Protoporphyrinogen IX oxidase (CyPPO16) of Spirulina subsalsa)
notes: CyPPO16 variant
B2: L327T + F360M: CyPPO16 variant (protein)
chain: B1 chain with M305V, L327T
modifications: Synthetic (Protoporphyrinogen IX oxidase (CyPPO16) of Spirulina subsalsa)
notes: CyPPO16 variant
B3: A162C + L327T + F360M: CyPPO16 variant (protein)
chain: B1 chain with A162C, M305V, L327T
modifications: Synthetic (Protoporphyrinogen IX oxidase (CyPPO16) of Spirulina subsalsa)
notes: CyPPO16 variant
B4: V304M: CyPPO17 variant (protein)
chain: MEVDVAIVGGGLSGLSVAWRLQQSAPQYSGVLLEASDRLGGNITTQGAEGFVWELGPNSFAPTPALLQLIAEVGLHSELIRGDRHLPRYIYWRGELYPLEPTRPLALATSNLLSPWGKVRAALGALGFVPPYLGSGDESVNSFFRRHLGQEVAERLVAPFVSGVYAGDPQQLSAAAAFRRIAQLEKLGGGLIAGALRLRRQQPPKPRPPAEVQMRPGELGSFKEGLAALPRAIAQQLKAPVHLQTPVEAITPEPNGGYLLRSGEQTWQARSVVLATPAYQTAALVAPFQPAIARVLAAIPYPTMACVVLAYPAGLGRSVRPGFGVLIPRGQGIRTLGTIWSSCLFPQRTPAGWQVFTSFIGGATDPDLASLREEAIVQQVQQDLTRLLDLPAAKARLLGMKVWRRAIPQYLVGYPQQWQQVTHALSQTPGLFLCSNYAEGVALGDRVEHGNRTAAAVAAYLSGGQS
modifications: Synthetic (Protoporphyrinogen IX oxidase (CyPPO17) of Thermosynechococcus sp. NK55a)
notes: CyPPO17 variant
B5: F323V: CyPPO17 variant (protein)
chain: B4 chain with M304V, F323V
modifications: Synthetic (Protoporphyrinogen IX oxidase (CyPPO17) of Thermosynechococcus sp. NK55a)
notes: CyPPO17 variant
B6: R85A: CyPPO16 variant (protein)
chain: B1 chain with R85A, M305V, M360F
modifications: Synthetic (Protoporphyrinogen IX oxidase (CyPPO16) of Spirulina subsalsa)
notes: CyPPO16 variant
B7: F360T: CyPPO16 variant (protein)
chain: B1 chain with M305V, M360T
modifications: Synthetic (Protoporphyrinogen IX oxidase (CyPPO16) of Spirulina subsalsa)
notes: CyPPO16 variant
B8: F360V: CyPPO16 variant (protein)
chain: B1 chain with M305V, M360V
modifications: Synthetic (Protoporphyrinogen IX oxidase (CyPPO16) of Spirulina subsalsa)
notes: CyPPO16 variant
B9: F360M: CyPPO16 variant (protein)
chain: B1 chain with M305V
modifications: Synthetic (Protoporphyrinogen IX oxidase (CyPPO16) of Spirulina subsalsa)
notes: CyPPO16 variant
B10: L327T: CyPPO16 variant (protein)
chain: B1 chain with M305V, L327T, M360F
modifications: Synthetic (Protoporphyrinogen IX oxidase (CyPPO16) of Spirulina subsalsa)
notes: CyPPO16 variant
B11: R85A + V160C + A162C + V305M + L327T + F360M: CyPPO16 variant (protein)
chain: B1 chain with R85A, V160C, A162C, L327T
modifications: Synthetic (Protoporphyrinogen IX oxidase (CyPPO16) of Spirulina subsalsa)
notes: CyPPO16 variant
B12: F324V: CyPPO16 variant (protein)
chain: B1 chain with M305V, F324V, M360F
modifications: Synthetic (Protoporphyrinogen IX oxidase (CyPPO16) of Spirulina subsalsa)
notes: CyPPO16 variant
B13: V305M: CyPPO16 variant (protein)
chain: B1 chain with M360F
modifications: Synthetic (Protoporphyrinogen IX oxidase (CyPPO16) of Spirulina subsalsa)
notes: CyPPO16 variant

Residue numbers refer to the chain shown, from its start. Numbers in names are those of the source.

One assay has as its system CyPPO16. In words: Herbicide tolerance test of CyPPO16 wild type and variants in PPO-deficient E. coli BT3(ΔPPO). In kind it is cell-based, Spirulina subsalsa. Conditions: BT3(ΔPPO) transformants, two or more amino acid mutations; dark, 37° C., 16 to 20 hours; relative to wild type at highest concentration (50, 200 μM). How it is done:
The mutated CyPPO gene obtained from the Example 2 was transformed to BT3 (ΔPPO) strain which is deficient of PPO activity and cultured in LB media with PPO-inhibiting herbicide, thereby examining whether growth of transformed BT3 was not inhibited.
BT3 competent cells were transformed with the pET303-CyPPO16 and pET303-CyPPO17 plasmids and those with a mutation(s) constructed in Example 2 respectively, and were cultured in LB agar media containing carbenicillin (Gold Biotechnology, Co., Ltd.).
Single colony of E. coli transformed with each CyPPO gene was cultured in 3 ml of LB broth containing carbenicillin overnight, and then was subcultured until absorbance (0D600) reached 0.5 to 1. Then, it was diluted with LB broth to OD600=0.5. Again, the diluted solution was serially diluted 4 times by a factor of one tenth.
The LB agar media (LB 25 g/l, Bacto agar 15 g/l) containing carbenicillin (100 μg/ml) and 0 to 4,000 μM of various herbicides dissolved in DMSO was prepared. Next, 10 μl of each diluted solution was dropped on the plate and cultured at 37° C. under light (Tables 7 and 9, FIGS. 2 to 6, and 18 to 22) or dark (Tables 8 and 10, FIGS. 7 to 17, and 23 to 33) for 16 to 20 hours. Then, extent of tolerance was evaluated.
The extent of herbicide tolerance of the mutated genes was evaluated by comparing that of mutated genes with that of wild type. The relative tolerance was represented with “+” as a factor of 10 times. Evaluation result was listed in Tables 7 to10 and FIGS. 2 to 33:
In Tables 7 to 10, tolerance level was presented as of tolerance of wild type and of variants equivalent to that of wild type, and was done as ‘+’ per each 10 fold resistance until ‘+++++’ as maximal resistance. (Tolerance level was evaluated by relative growth level of variants to that of wild type in the media containing highest concentration of herbicide; ‘+’=1-9 fold higher tolerance, ‘++’=10-99 fold higher tolerance, ‘+++’=100-999 fold higher tolerance, ‘++++’=1,000-9,999 fold higher tolerance, ‘+++++’=more than 10,000 fold higher tolerance)
The concentrations of herbicides were written above the photographs of tolerance test. A dilution series (0D600=0.5, 0.05, 0.005, 0.0005, 0.00005) was made and spotted on LB agar plates supplemented with herbicides.
Take B1: the “Herbicide tolerance, tiafenacil” value was “+++ (‘+++’=100-999 fold higher tolerance)”.

Take B2: the “Herbicide tolerance, tiafenacil” value is given as “++++ (‘++++’=1,000-9,999 fold higher tolerance)”.

In the case of B3, the “Herbicide tolerance, tiafenacil” value is “+++++ (‘+++++’=more than 10,000 fold higher tolerance)”.

Staying with this assay, now noted: BT3(ΔPPO) transformants, two or more amino acid mutations; dark; relative to wild type at highest concentration (25, 50 μM).
Take B1: the “Herbicide tolerance, flumioxazin” value is “++++ (‘++++’=1,000-9,999 fold higher tolerance)”.

As for B2, the “Herbicide tolerance, flumioxazin” value is on record as “++++ (‘++++’=1,000-9,999 fold higher tolerance)”.

Take B3: the “Herbicide tolerance, flumioxazin” value is listed as “+++++ (‘+++++’=more than 10,000 fold higher tolerance)”.

The assay is the same for the next values; noted with them: BT3(ΔPPO) transformants, two or more amino acid mutations; dark; relative to wild type at highest concentration (2000, 4000 μM).
Regarding B1, the “Herbicide tolerance, sulfentrazone” value is listed as “+ (‘+’=1-9 fold higher tolerance)”.

In the case of B2, the “Herbicide tolerance, sulfentrazone” value was “++ (‘++’=10-99 fold higher tolerance)”.

Turning to B3, the “Herbicide tolerance, sulfentrazone” value was “++++ (‘++++’=1,000-9,999 fold higher tolerance)”.

For a further assay, the system named is CyPPO17. Briefly: PPO enzyme activity of MBP-fused CyPPO17 wild type and variants. In kind it is biochemical, Thermosynechococcus sp. NK55a. As to conditions: PPO enzyme activity relative to wild type; MBP-fused protein, 50 μM protoporphyrinogen IX, room temperature, 30 min. The protocol:
(§1) Thus, PPO proteins of wild type and variants were expressed as fused to MBP and were used for experiments.
(§2) The following process for purification of PPO protein was performed in a 4° C. cold room. Amylose resin (NEB) was packed to 1.5×15 cm column (Bio-Rad, Econo Columns 1.5×15 cm, glass chromatography column, max. vol), and the obtained protein extracts were loaded to the column at a flow rate of 0.2 ml/min. The column was washed with 3 column volumes of buffer and the presence of protein in the washing solution was examined. When the protein was no longer detected, the washing procedure was terminated. Then, the MBP-PPO protein was eluted with approximately 2 column volumes of buffer containing 20 mM maltose. The protein concentration of each eluent was determined and the elution was stopped when the protein was no longer detected. Ten microliter of each fraction was investigated for protein quantification and SDS-PAGE analysis. The highly pure fractions of PPO protein variants were used for the enzyme assay.
(§3) Since protoporphyrinogen IX, a substrate of PPO protein, was not commercially available, it was chemically synthesized in the laboratory. Overall process was performed in dark under nitrogen stream. […] of protoporphyrin IX was dissolved in 20 ml of 20% (v/v) EtOH, and stirred under dark condition for 30 minutes. The obtained protoporphyrin IX solution was put into a 15 ml screw tube in an amount of 800 μl, and flushed with nitrogen gas for 5 minutes. To this, 1.5 g of sodium amalgam was added and vigorously shaken for 2 minutes. The lid was opened to exhaust hydrogen gas in the tube. Thereafter, the lid was closed and incubated for 3 minutes. The protoporphyrinogen IX solution was filtered using syringe and cellulose membrane filter. […] To determine the enzyme activity of PPO protein, a reaction mixture was prepared with the following composition (based on 10 ml): 50 mM Tris-Cl (pH 8.0); 50 mM NaCl; 0.04% (v/v) Tween 20; 40 mM glucose (0.072 g); 5 units glucose oxidase (16.6 mg); and 10 units catalase (1 μl).
(§4) Hundred and eighty microliters of a reaction mixture containing the purified PPO protein were placed in 96 well plates and 20 μl of […] were added. […] The reaction proceeded at room temperature for 30 min and the fluorescence of protoporphyrin IX was measured using Microplate reader (Sense, Hidex) (excitation: 405 nm; emission: 633 nm). […] To this, 2.7 N HCl was added, and the absorbance at 408 nm was measured. A standard curve was generated using standard protoporphyrin IX, and PPO activity was measured by calibration of protoporphyrin IX using the standard curve of protoporphyrin IX.
(§5) Activities of variants were presented relatively compared to that of wild type.
On to B4, for which the “Activity (%)” value is recorded as 82%.

For B5, the “Activity (%)” value is reported as 16%.

In the next assay the test system is CyPPO16. Briefly: PPO enzyme activity of MBP-fused CyPPO16 wild type and variants. Conditions: PPO enzyme activity relative to wild type; MBP-fused protein, 50 μM protoporphyrinogen IX, room temperature, 30 min. In kind it is biochemical, Spirulina subsalsa. How it is done:
as §1, §2, §3, §4, §5
On to B1, for which the “Activity (%)” value came out at 35%.

With B6, the “Activity (%)” value came out at 94%.

As for B7, the “Activity (%)” value is 25%.

Turning to B8, the “Activity (%)” value came out at 69%.

On to B9, for which the “Activity (%)” value is on record as 83%.

Regarding B10, the “Activity (%)” value was 68%.

Regarding B2, the “Activity (%)” value is 21%.

For B11, the “Activity (%)” value worked out at 13%.

With B12, the “Activity (%)” value is on record as 23%.

For B13, the “Activity (%)” value was 72%.

On to B3, for which the “Activity (%)” value amounted to 17%.
